This is an account of results in patent US20260199463A1 (published 2026).

B1: NEC_M_44 (VHH)
VHH: EVQLLESGGGLVQPGGSLRLSCAASGRTLSSYAMGWYRQAPGKERELVSSISGSGGSTRYADSVKGRFTISRDNSKNTLYLQMNSLKPEDTAVYYCAVYILELAPGAEYWGQGTQVTVSS
B2: NEC_M_5 (VHH)
VHH: EVQLLESGGGLVQPGGSLRLSCAASGLSFSSYSMGWYRQAPGKEREFVSAISGSSGSTNYADSVKGRFTISRDNSKNTLYLQMNSLKPEDTAVYYCAAEHRVTTSGVFYDYWGQGTQVTVSS
B3: NEC_S_11 (VHH)
VHH: EVQLLESGGGLVQPGGSLRLSCAASGLTSSGYAMGWYRQAPGKERELVSSISSSGGLTHYADSVKGRFTISRDNSKNTLYLQMNSLKPEDTAVYYCDADIAYTGADYWGQGTQVTVSS
B4: NEC_M_46 (VHH)
VHH: EVQLLESGGGLVQPGGSLRLSCAASGYTFSDYAMGWYRQAPGKERELVSSISGSGGSTRYADSVKGRFTISRDNSKNTLYLQMNSLKPEDTAVYYCAAVIRQPSTGFYEYWGQGTQVTVSS
B5: NEC_M_17 (VHH)
VHH: EVQLLESGGGLVQPGGSLRLSCAASGFTYSGYAMGWYRQAPGKERELVSSISGSGTLTSYADSVKGRFTISRDNSKNTLYLQMNSLKPEDTAVYYCDVDIPVGDATTVGDYWGQGTQVTVSS
B6: NEC_M_8 (VHH)
VHH: EVQLLESGGGLVQPGGSLRLSCAASGFTFSSYAMGWYRQAPGKEREFVSSISGSGGLTRYADSVKGRFTISRDNSKNTLYLQMNSLKPEDTAVYYCAVTTGYQGGVYDYWGQGTQVTVSS
B7: NEC_S_31 (VHH)
VHH: EVQLLESGGGLVQPGGSLRLSCAASGFTYSSYAMGWYRQAPGKERELVSSISGSGGSTRYADSVKGRFTISRDNSKNTLYLQMNSLKPEDTAVYYCAVAIGVGDYWGQGTQVTVSS
B8: NEC_S_55 (VHH)
VHH: EVQLLESGGGLVQPGGSLRLSCAASGFTLSSYAMGWYRQAPGKERELVSSISGSGGSTRYADSVKGRFTISRDNSKNTLYLQMNSLKPEDTAVYYCAAYIGGDYLGQGTQVTVSS

One test deals with huNec4.
As to B1, the Kd is 33 nM.
Still for that read-out and setting: next, B2: 28 nM; B3: 302 nM; B4: 19 nM.
For B5, the affinity, expressed as Kd, was 10 nM.
On the same count and under the same terms, next, B6: 122 nM; B7: 84 nM.
On the same count and under the same terms, next, B8: 81 nM.

The target of the next test is msNec4.
The molecule B1 showed a Kd of 27 nM.
Still for that read-out and setting: the value for B2 was 8060 nM.
The same measure, in the same setting: next, B3: 38 nM; B4: 14 nM.
On the same count and under the same terms, the value for B5 was 11 nM; that for B6 was 47 nM.
B7 showed a Kd of 10 nM.
Still for that read-out and setting: next, B8: 28 nM.

The term Kd denotes the free concentration of one partner at which half of the binding sites on the other are occupied at equilibrium, for simple one-to-one binding.
